Molecular target: human Tau protein (human, UniProt P10636-8 1-441, limits assumed)
Assay: method not stated

Sequence of human Tau protein (P10636 other isoform, or with tags, fused parts or gaps limits assumed): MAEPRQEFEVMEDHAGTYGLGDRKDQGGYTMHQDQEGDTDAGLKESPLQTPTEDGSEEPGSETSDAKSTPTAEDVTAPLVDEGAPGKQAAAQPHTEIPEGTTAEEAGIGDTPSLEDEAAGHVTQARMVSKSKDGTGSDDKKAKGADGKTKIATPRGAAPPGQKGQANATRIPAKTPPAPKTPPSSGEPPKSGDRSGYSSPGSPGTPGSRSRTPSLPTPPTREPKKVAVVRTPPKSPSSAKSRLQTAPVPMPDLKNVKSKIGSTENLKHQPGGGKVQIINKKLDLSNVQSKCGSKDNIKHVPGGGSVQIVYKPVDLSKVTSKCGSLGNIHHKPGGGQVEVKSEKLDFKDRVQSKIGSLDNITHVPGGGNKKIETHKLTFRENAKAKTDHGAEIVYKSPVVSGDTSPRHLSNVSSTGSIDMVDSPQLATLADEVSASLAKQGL

Kd: 9.7 nM
B1: mouse monoclonal anti-Tau antibody clone 13A6 (antibody, V domains shown)
VH: EVQLQQSGAELVRPGASVKLPCTASGFNIKDDYMNWVMQRPERGLEWIGWIDPENGDTAYASKFQGKATMTADTSSNTAYLQLSSLTSEDTAVYYCTSGGRFDYWGQGTSLTVSS
VL: DVLMTQTPLSLPVSLGDQASISCRSSQSIVHSNGSTYLEWYLQKPGQSPKLLIYKVSNRFSGVPDRFSGSGSGTDFTLKINRVEAEDLGVYYCFQGSHVPWTFGGGTKLEIK
notes: Mouse monoclonal from a hybridoma; also called mAb 13A6; antibody 13A6
